Results on one molecule are retold here after publication PMC3483115 (The Journal of General Physiology, 2012).

For the experiment, the target named is calmodulin (CaM), wild type (UniProt P0DP23 1-149). Kind of experiment: SEC. On the technique in general: Size exclusion chromatography separates by hydrodynamic size, large species first.

As to EGVKRTLSFSLRSGRVSGRNWKNFALVPLLRDAST [TRPV1-CT35 (TRPV1 C-terminal residues 767–801)], the binding result is reported as “binds”.
